From patent US20080311122A1 (AstraZeneca / MedImmune, published 2008)

T1: native nuclear HMG1 prepared from 293H cells by freeze thaw (human, UniProt P09429 1-215)
T1 construct: unpurified cell lysate supernatant
T1 sequence (looked up): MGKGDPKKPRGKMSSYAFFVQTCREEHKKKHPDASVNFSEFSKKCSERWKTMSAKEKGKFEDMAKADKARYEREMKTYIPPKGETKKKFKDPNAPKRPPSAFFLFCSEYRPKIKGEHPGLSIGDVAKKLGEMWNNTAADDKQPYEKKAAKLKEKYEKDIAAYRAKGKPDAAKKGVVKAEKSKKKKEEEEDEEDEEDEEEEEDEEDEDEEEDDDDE

T2: HMGB1 in joint lysates of adjuvant induced arthritis (AIA) rats (rat, UniProt P63159 2-215)
T2 construct: also called HMGB1 from arthritis joints; AA joint lysates
T2 sequence (looked up): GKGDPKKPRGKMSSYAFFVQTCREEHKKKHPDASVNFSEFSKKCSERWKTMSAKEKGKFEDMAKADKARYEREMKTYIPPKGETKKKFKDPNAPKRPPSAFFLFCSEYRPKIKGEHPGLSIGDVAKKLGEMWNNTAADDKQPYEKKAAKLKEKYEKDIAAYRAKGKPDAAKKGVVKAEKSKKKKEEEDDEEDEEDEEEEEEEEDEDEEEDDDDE

B1: anti-HMG1 antibody S2 (antibody, V domains shown)
VH: EVQLLESGGGLVQPGGSLRLSCAASGFTFSGYMMVWVRQAPGKGLEWVSRISPSGGQTGYADSVKGRFTISRDNSKNTLYLQMNSLRAEDTAVYYCAREEGGSYGAFDIWGQGTMVTVSS
VL: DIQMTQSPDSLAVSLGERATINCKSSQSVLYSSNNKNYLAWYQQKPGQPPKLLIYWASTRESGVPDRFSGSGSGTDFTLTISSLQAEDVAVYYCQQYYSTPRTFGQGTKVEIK
notes: also called ATCC PTA-6142
B2: anti-HMG1 antibody G4 (antibody, V domains shown)
VH: EVQLLESGGGLVQPGGSLRLSCAASGFTFSWYDMTWVRQAPGKGLEWVSSISPSGGYTKYADSVKGRFTISRDNSKNTLYLQMNSLRAEDTAVYYCTTEFYDYLDVWGKGTTVTVSS
VL: DIQMTQSPGTLSLSPGEGATLSCRASQSVSSTYLAWYQQKPGQAPRLLIYEASKRATGTPARFSGSGSGTDFTLSISSLEPEDFAVYYCQHRHNWPPQWTFGQGTKVEVK
notes: also called ATCC PTA-6258

How the values were obtained:
[1] = target: T1, native nuclear HMG1 prepared from 293H …; assay: sandwich ELISA: antibody captured on anti-human IgG Fc, native HMGB1 0.7 ug/ml in solution, mouse anti-HMGB1 and anti-mouse IgG-HRP, OD 450
Description: Sandwich ELISA (soluble HMG1): Immunoplates (EIA/RIA plate, High binding, Costar) were coated with anti human IgG Fc at 10 μg/ml in PBS (pH 7.2) and incubated at 4° C. overnight. The coating reagent was removed and the plates were rinsed briefly with PBS. The plates were then blocked with 4% milk for 1 hour at 37° C. and rinsed with PBS. The anti-HMG1 antibodies were diluted in 4% milk. For serial dilutions, the antibodies were used at a starting concentration of 20 μg/ml. The diluted anti-HMG1 antibodies were then added into plate and incubated for 1 hr at 37° C. The plate was then washed 10 times with PBST (PBS/0.1% tween 20) and incubate with antigen (HMGB1, 2 μg/ml; or 0.7 μg/ml for native HMGB1) in 4% milk and incubated at 37° C. for 1 h. The plate was then wash 10 times and incubated with mouse anti-HMGB1, 1 μg/ml in 4% milk at 37° C. for 1 h. The plate was washed 10 times and incubated with anti-mouse IgG-HRP at 1:1000 at 37° C. for 1 h. The plate was then washed and developed. HRP activity was detected with Sureblue HRP substrate (KPL). Plates were read at 450 nm using a Kinetic Microplate Reader (Molecular Devices).

[2] = target: T2, HMGB1 in joint lysates of adjuvant …; assay: sandwich ELISA and immunoprecipitation with Western blot
Description: HMGB1 Detection from Biological Samples: For detection of the HMGB1 from AA joint homogenates and peritonitis sera, sandwich ELISA was performed. Goat anti-human Fc (Pierce) 14 μg/ml in PBS was coated on Immunlon IV microtiter plate over night at 4° C. After washing and blocking with 5% milk 1 hr at room temperature, G4 or S6 in blocking buffer (10 μg/ml) were added to each well of the blocked plate. The plate was washed 1 hour later and 25 μl of AIA homogenates containing 0.8 μg/ml of HMGB1 or peritonitis sera containing 7 μg/ml of HMGB1 in 0.5 M NaCl/blocking buffer were added to the wells at two fold serial dilutions. The unbound materials were removed by washing one hr after incubation. The bound HMGB1 was detected by a mouse anti-HMGB1 antibody at 2 μg/ml followed by an anti-mouse antibody conjugated with horseradish peroxidase. Mouse peritonitis sera was obtained by heart puncture 7 days after infection with heat killed staphylococcus aureus. Joint lysate was prepared from the whole paw of AIA rats as described in Example 6 below. Human sepsis sera were purchased from a commercial source.
Immunoprecipitation and Western Blot: Anti-HMGB1 mAbs (G4 and S6) and isotype control were first biotinylated using EZ-Link Sulfo-NHS-LC-Biotin as instructed by the manufacturer (Pierce). After labeling, the mAb was tested for binding to HMGB1 by ELISA with unlabeled mAbs as controls. […]

Binder | EC50 (read off the curve) [1] | binding result [2]
B1 | ~0.8 µg/mL | –
B2 | – | binds
